Assay results published in patent US20220119492A1 (MEDIKINE, published 2022).
Substitutions are numbered along the chain they refer to. One block for each binder: values may come before it. Primed or numbered codes have the meaning given here. Ends that are not written are not given here. PEG10 = NCCOCCOCCOCCOCCOCCOCCOCCOCCOCCOCCC(=O)O; PEG20′ = not defined here; PEG4′ = not defined here

Columns and labels:
[1] = molecular target: T1, human IL-2Rγc (CD132 protein, Fc Tag) (23-254) (human, UniProt P31785 23-254); experiment: competition ELISA, peptide tracer
T1 construct: range 23-254; Bought protein; also called hu-IL-2Rγc subunit; IL-2Rγc subunit; not shown: Fc tag of the bought protein
T1 sequence (looked up): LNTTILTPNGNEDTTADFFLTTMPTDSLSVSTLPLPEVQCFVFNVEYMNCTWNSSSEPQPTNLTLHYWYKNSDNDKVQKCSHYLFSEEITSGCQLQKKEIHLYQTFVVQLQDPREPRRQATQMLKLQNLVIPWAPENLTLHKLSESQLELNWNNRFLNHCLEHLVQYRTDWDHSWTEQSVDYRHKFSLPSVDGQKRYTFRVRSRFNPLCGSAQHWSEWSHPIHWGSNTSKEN
Method: (§1) Binding of Fc fusions to IL-2Rβ and IL-2Rγc were measured using a competition binding ELISA with biotinylated peptide/NeutrAvidin-HRP tracer. ELISA plate was prepared as described in Example 27.
(§2) The plate was washed 4 times with PT (1×PBS, 0.05% Tween® 20) buffer. Fifty (50) μL of IL-2R ligands serially diluted in PBT was added to appropriate wells then incubated at 4° C. for 1 hr.
(§3) At the appropriate time, the precomplexed bn-peptide/NA-HRP tracer was diluted to 2-fold its predetermined binding EC80 (typically 30 to 10 nM) without washing. fifty (50) μL of bn-peptide/NA-HRP tracer was added to each well and incubated at 4° C. for 45 mins.

[2] = molecular target: T2, cynomolgus monkey IL-2Rβ subunit (cynomolgus monkey); experiment: competition ELISA, peptide tracer
T2 construct: Bought protein; also called cyno-IL-2Rβ subunit
T2 sequence (Q38J85 whole entry): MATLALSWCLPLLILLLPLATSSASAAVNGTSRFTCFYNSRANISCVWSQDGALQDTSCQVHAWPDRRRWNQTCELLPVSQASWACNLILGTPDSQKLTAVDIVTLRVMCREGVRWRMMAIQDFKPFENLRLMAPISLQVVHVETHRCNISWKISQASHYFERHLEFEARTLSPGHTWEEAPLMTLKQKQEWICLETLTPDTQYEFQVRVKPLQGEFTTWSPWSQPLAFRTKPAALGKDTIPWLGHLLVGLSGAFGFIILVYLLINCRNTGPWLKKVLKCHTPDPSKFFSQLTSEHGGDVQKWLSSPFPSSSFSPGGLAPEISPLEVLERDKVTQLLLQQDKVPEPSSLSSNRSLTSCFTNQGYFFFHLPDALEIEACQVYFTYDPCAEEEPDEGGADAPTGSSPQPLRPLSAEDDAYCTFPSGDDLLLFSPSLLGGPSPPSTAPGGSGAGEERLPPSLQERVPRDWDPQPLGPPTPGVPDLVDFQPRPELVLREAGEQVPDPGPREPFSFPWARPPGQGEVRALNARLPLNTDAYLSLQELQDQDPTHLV
Method: as §1, §2, §3

[3] = molecular target: T3, cynomolgus monkey Rγc subunit (cynomolgus monkey); experiment: competition ELISA, peptide tracer
T3 construct: also called cyno-IL-2Rγc subunit
Method: as §1, §2, §3

[4] = molecular target: T4, human IL-2Rβ (CD122 protein, Fc Tag) (27-239) (human, UniProt P14784 27-239); experiment: competition ELISA, peptide tracer
T4 construct: range 27-239; Bought protein; also called hu-IL-2Rβ subunit; IL-2Rβ subunit; not shown: Fc tag of the bought protein
T4 sequence (looked up): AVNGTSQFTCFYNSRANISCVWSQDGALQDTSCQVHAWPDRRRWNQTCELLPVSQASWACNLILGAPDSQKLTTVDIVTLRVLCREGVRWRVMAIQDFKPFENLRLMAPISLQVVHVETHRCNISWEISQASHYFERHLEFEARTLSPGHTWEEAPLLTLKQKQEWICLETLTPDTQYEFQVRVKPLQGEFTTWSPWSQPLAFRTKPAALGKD
Method: as §1, §2, §3

hu-IL-2R = molecular target: T5, hu-IL-2R (human, UniProt P14784 27-551; P31785 23-369); experiment: cell-based or functional assay
T5 sequence (looked up) 1: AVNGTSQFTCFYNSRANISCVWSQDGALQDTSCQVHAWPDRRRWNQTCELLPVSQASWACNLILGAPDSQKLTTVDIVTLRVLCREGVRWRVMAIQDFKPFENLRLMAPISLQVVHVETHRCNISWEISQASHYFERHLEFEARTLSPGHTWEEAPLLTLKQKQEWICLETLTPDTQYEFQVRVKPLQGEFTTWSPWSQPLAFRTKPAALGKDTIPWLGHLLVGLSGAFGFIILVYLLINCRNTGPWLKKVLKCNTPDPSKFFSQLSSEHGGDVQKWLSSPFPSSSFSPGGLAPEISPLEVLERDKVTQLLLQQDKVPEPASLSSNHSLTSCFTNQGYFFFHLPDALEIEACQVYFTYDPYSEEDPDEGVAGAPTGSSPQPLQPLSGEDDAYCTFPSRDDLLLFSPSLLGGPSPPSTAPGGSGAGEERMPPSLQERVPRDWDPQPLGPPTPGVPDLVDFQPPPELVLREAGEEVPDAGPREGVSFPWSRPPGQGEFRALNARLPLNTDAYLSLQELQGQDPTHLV
T5 sequence (looked up) 2: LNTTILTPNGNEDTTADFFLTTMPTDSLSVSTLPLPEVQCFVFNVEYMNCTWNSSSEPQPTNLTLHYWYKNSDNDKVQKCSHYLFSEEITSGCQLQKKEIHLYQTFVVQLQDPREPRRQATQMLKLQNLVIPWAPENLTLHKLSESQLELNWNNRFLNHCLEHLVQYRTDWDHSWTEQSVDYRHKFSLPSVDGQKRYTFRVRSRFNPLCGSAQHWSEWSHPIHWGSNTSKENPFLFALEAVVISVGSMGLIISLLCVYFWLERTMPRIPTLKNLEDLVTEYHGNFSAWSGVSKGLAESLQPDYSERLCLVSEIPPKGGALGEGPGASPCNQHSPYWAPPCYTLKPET

[5] = molecular target: T1, human IL-2Rγc (CD132 protein, Fc Tag) …; experiment: IL-2Rγc IC50, assay not named in Example 29
[6] = molecular target: T4, human IL-2Rβ (CD122 protein, Fc Tag) …; experiment: IL-2Rβ IC50, assay not named in Example 29

B1: IL-2Rβγc ligand having SEQ ID NO: 4171 (peptide)
peptide: GGGELLVDCFKVKVGELCDLFFGPAPAPAPAPAPAPAPAGVVCQDWEGVELCWQGG
IC50 [1]: < 100 µM | IC50 [2]: < 100 µM | IC50 [3]: < 100 µM | IC50 [4]: < 100 µM

B2: PEG-IL-2Rβγc ligand construct PEG-1 (peptide)
peptide: {PEG 40 kDa branched-PEG10}-GGWYPCWMAQLGELCDLDGGGGSGGVVCQDWEGVELCWQGG
modifications: not fully specified; printed as -GGWYPCWMAQLGELCDLDGGGGSGGVVCQDWEGVELCWQGG-; cysteine pairing not given here
EC50 (STAT5, NK92) (hu-IL-2R): 0.0058 µM | IC50 [5]: 0.026 µM | IC50 [6]: 0.031 µM

B3: PEG-IL-2Rβγc ligand construct PEG-7 (peptide)
peptide: {PEG 40 kDa branched-PEG20′}-GGWYPCWMAQLGELCDLDGGGGSGGVVCQDWEGVELCWQGG
modifications: cysteine pairing not given here; reading uncertain
EC50 (STAT5, NK92) (hu-IL-2R): 0.0083 µM | IC50 [5]: 0.0017 µM | IC50 [6]: 0.0034 µM

B8: PEG-IL-2Rβγc ligand construct PEG-5 (peptide)
peptide: {PEG 20 kDa linear-PEG20′}-GGWYPCWMAQLGELCDLDGGGGSGGVVCQDWEGVELCWQGG
modifications: cysteine pairing not given here; reading uncertain
EC50 (STAT5, NK92) (hu-IL-2R): 0.001 µM | IC50 [5]: 0.0041 µM | IC50 [6]: 0.033 µM

B9: PEG-IL-2Rβγc ligand construct PEG-3 (peptide)
peptide: {PEG 40 kDa branched}-APAPAPAPAPAPGGWYPCWMAQLGELCDLDGGGGSGGVVCQDWEGVELCWQGG
modifications: cysteine pairing not given here
EC50 (STAT5, NK92) (hu-IL-2R): 0.0023 µM | IC50 [5]: 0.0043 µM | IC50 [6]: 0.014 µM

B10: PEG-IL-2Rβγc ligand construct PEG-2 (peptide)
peptide: GGWYPCWMAQLGELCDLDGGGGSGGVVCQDWEGVELCWQGG-{PEG4′-PEG 40 kDa branched}
modifications: cysteine pairing not given here
EC50 (STAT5, NK92) (hu-IL-2R): 0.273 µM | IC50 [5]: 0.69 µM | IC50 [6]: 0.008 µM

B12: SEQ ID NO 4170 (peptide)
peptide: GGGELLVDCFKVKVGELCDLFFGGGGGSGGGGSGGGGSGGGGSGGVVCQDWEGVELCWQGG
IC50 [1]: < 100 µM | IC50 [2]: < 100 µM | IC50 [3]: < 100 µM | IC50 [4]: < 100 µM

B14: IL-2Rβγc ligand BGL22 (peptide)
peptide 1: GGRYVHDCFIAQVGALCDLFLHPAPAPAPAPAPAPAPA
peptide 2: VVCQDWEGVELCWQGG
modifications: cysteine pairing not given here; also: two chains joined by non-peptidyl linker L11 (click chemistry)
notes: Made by click chemistry
IC50 [1]: < 100 µM | IC50 [2]: < 100 µM | IC50 [3]: < 100 µM | IC50 [4]: < 100 µM

B15: IL-2Rβγc ligand BGL24 (peptide)
peptide 1: B14 peptide 1 with A15D, F20A
peptide 2: VVCQDWEGVELCWQGG
modifications: cysteine pairing not given here; also: two chains joined by non-peptidyl linker L11 (click chemistry)
notes: Made by click chemistry
IC50 [1]: < 100 µM | IC50 [2]: < 100 µM | IC50 [3]: < 100 µM | IC50 [4]: < 100 µM

B16: IL-2Rβγc ligand BGL23 (peptide)
peptide 1: B14 peptide 1 with D7A, A15D
peptide 2: VVCQDWEGVELCWQGG
modifications: cysteine pairing not given here; also: two chains joined by non-peptidyl linker L11 (click chemistry)
notes: Made by click chemistry
IC50 [1]: < 100 µM | IC50 [2]: < 100 µM | IC50 [3]: < 100 µM | IC50 [4]: < 100 µM

B17: SEQ ID NO 4178 (peptide)
peptide: GGELLVDCFKVKVGELCDLFFGPAPAPAPAPAPAPAPAGVVCQDWEGVELCWQGG
IC50 [1]: < 100 µM | IC50 [2]: < 100 µM | IC50 [3]: < 100 µM | IC50 [4]: < 100 µM

B20: PEG-IL-2Rβγc ligand construct PEG-6 (peptide)
peptide: {PEG 40 kDa linear-PEG20′}-GGWYPCWMAQLGELCDLDGGGGSGGVVCQDWEGVELCWQGG
modifications: cysteine pairing not given here; reading uncertain
EC50 (STAT5, NK92) (hu-IL-2R): 0.0016 µM | IC50 [5]: 0.0034 µM | IC50 [6]: 0.017 µM

B21: PEG-IL-2Rβγc ligand construct PEG-4 (peptide)
peptide: GGWYPCWMAQLGELCDLDGGGGSGGVVCQDWEGVELCWQGG-{PEG10-PEG 40 kDa branched}
modifications: cysteine pairing not given here
EC50 (STAT5, NK92) (hu-IL-2R): 0.024 µM | IC50 [5]: 0.0037 µM | IC50 [6]: 0.0085 µM

Results, then the binder that gave them:

IC50 [1]: < 100 µM | IC50 [2]: < 100 µM | IC50 [3]: < 100 µM | IC50 [4]: < 100 µM
B4: SEQ ID NO 4182 (peptide)
peptide: GGRYVHDCFIAQVGDLCALFLHPAPAPAPAPAPAPAPAGVVCQDWEGVELCWQGG

IC50 [1]: < 100 µM | IC50 [2]: < 100 µM | IC50 [3]: < 100 µM | IC50 [4]: < 100 µM
B5: SEQ ID NO 4185 (peptide)
peptide: B4 peptide with A11G, A18D

IC50 [1]: < 100 µM | IC50 [2]: < 100 µM | IC50 [3]: < 100 µM | IC50 [4]: < 100 µM
B6: SEQ ID NO 4184 (peptide)
peptide: B4 peptide with L16A, A18D

IC50 [1]: < 100 µM | IC50 [2]: < 100 µM | IC50 [3]: < 100 µM | IC50 [4]: < 100 µM
B7: SEQ ID NO 4183 (peptide)
peptide: B4 peptide with V13A, A18D

IC50 [1]: < 100 µM | IC50 [2]: < 100 µM | IC50 [3]: < 100 µM | IC50 [4]: < 100 µM
B11: SEQ ID NO 4179 (peptide)
peptide: LVDCFKVKVGELCDLFFGPAPAPAPAPAPAPAPAGVVCQDWEGVELCWQ

IC50 [1]: < 100 µM | IC50 [2]: < 100 µM | IC50 [3]: < 100 µM | IC50 [4]: < 100 µM
B13: SEQ ID NO 4177 (peptide)
peptide: GGELLVDCFKVKVGELCDLFFGPAPAPAPAPAPAPAPAPAPAPAVVCQDWEGVELCWQGG

IC50 [1]: < 100 µM | IC50 [2]: < 100 µM | IC50 [3]: < 100 µM | IC50 [4]: < 100 µM
B18: SEQ ID NO 4181 (peptide)
peptide: B17 peptide with K10R, K12R

IC50 [1]: < 100 µM | IC50 [2]: < 100 µM | IC50 [3]: < 100 µM | IC50 [4]: < 100 µM
B19: SEQ ID NO 4180 (peptide)
peptide: VDCFKVKVGELCDLFFGPAPAPAPAPAPAPAPAGVVCQDWEGVELCWQ
